Experiment: soluble on expression in E. coli; label from the status in PepcDB or PDB records

Row | Sequence | soluble on expression in E. coli
1 | MQFFISSAILFSYAFCQSIPNVILTGEPRVVARRILNVDMKAAQQLALPDDQQHVRYQVNVVRNQENPSDSTYLTGERTPVTVYRRILRPARITFTGDGVITDSWQGTSDAVEMESWTLNRRPTIDGSFVQPTQNQQGAFH | not soluble
2 | MAGDPMAYQQGKQGQNVEKESTRQQETKPIHVKDTTQETKDNGTRTDIAKHLVSVAEKNPDVKDATAVVLGGYAVVGIDVDDTLDRSKVETIKYSVAQALKNDRYGANAVVIADPDTVSRLREMSREISEGHPVTGILDELAAIVGRVLPEVPNDVIDNEDEPQTKQQNDQLNRKQQQEMEKEQNDQSDHHMKKNNNDLEHHHHHH | soluble
3 | MGSDKIHHHHHHCSTEVTEYRQQQPALDIFHYFQGRTEAWGMVQDRSGKQLRRFHVEIDGDVVGDTLTLHERFVYDDGEKQQRIWRIRRTGDNRYQGTAGDIEGVASGQAAGNAFHWRYSMNVEASGSRWLLHFDDWMFLQDGSHLFNKTEMKKFGITVATVTLFFTRTTAEERTAP | not soluble
4 | GPGSMNHLAGKIHVVQTPEEGRRFSLEQVVLPVLGNGAERLVSPDGKMREASERLAQELQIEGLMKMKAAPPATYRRLVVRPRDFTYCLFDDERGWCWESNNEAPIRPQLWEDQEGIMRQLSPLSVATGKNIIARNGIRGAEQRSHFLKAARRSGMTCVLRMTLPRGSAVTSALREAFQFATLDPGVIFHLLR | not soluble
5 | MGSDKIHHHHHHMETLYLKTLIVTAEKGSFSKAAAELCITQSAVSQRVKFLEERYGCELLDRSGPVMMLTAAGEAVVRKAQAILDIEKTLQDELKKFTGRQRLSICCTPSFGIAHMPKVLNRFMLRNADIVDLKFMFYSPEQAVKGLAEREFDIGIIEHCEDLDLADFHTATLPRDELVFVSAPSLGIPTPLVTIERLFEERLITRKDGCSSKKLLRLNLASIGKDLEGFRSTVVYDDLHLTVDTVLDGGGVAFVSSCLVNKYLENGQLKQHRVEGFCHSRQRTVALSRSKVQDRLVSDFLACLDTVFTDQCHRSSCPT | not soluble
6 | GPGSMFSLVRGLYSSIFADDTRKVLIVGLESSGKTTLSEQLKHMYATESSKNGANSSTTEENSGDATASEVNYNFPTPAPVESLRKKIRPTTGLNRSSVTHVTTPPQHETPNVSLTPLTTPLILWDIGGSLRPLWGNFFGTCHGVIFVVDSTLGEATSNGCSEGGRKTSPDQVGTSEDDESDVGAQPNSPIGDVREGERSQFLRKLYAKDALILRQMFSHPLLAGAPLLIVSNKVDAANHHTLVEIQDALRLVDVALMDEFYADDCVVGEPVYGELHRNGEGDYEGPPDRSAYDKLSNEKSFGGVATPPPGSSGIGNRVMRLVEMSALHGTGVVDGMNWLVAQMRDSGRQPLPDDGK | not soluble
7 | MGHHHHHHSHMTLEELVACDNAAQKMQTVTAAVEELLVAAQRQDRLTVGVYESAKLMNVDPDSVVLCLLAIDEEEEDDIALQIHFTLIQSFCCDNDINIVRVSGNARLAQLLGEPAETQGTTEARDLHCLPFLQNPHTDAWKSHGLVEVASYCEESRGNNQWVPYISLQER | soluble
8 | MQVSVRDNNVDQALRALKKKLQREGVFREMKLKQHFEKPSEKKAREKAEAIRRARKLARKKAQREGMLLEHHHHHH | not soluble
9 | MNQTKTTTDDNKNSKPAETESTITVPEWITETINGGSFCHVDLETGTNGWASPPGNVFSLRSHNYFTATKQKSPGGDYLLSLAAVDWLKSTTKKLDHILSRPDNRVIHAFKTSQSRSFIFAVNFQVPGKEHYNLVFYFATQKPIPSDSLLHKFINTDEDSFRNERFKIVSNVVKGPWVVKAAAGKFGAFVAGKAMKCTYYRGDNYFEVDVDISSSAIMTALIRFMLGYVTYLMVDIGFVVEAQTAEELPERLIGGARICHMELSSSFLVDDDEKKSLQPRRRMMGAAEDNDDEI | soluble
10 | LLEQESLPATGELYEHAACGLLVTLPNGTIERANLTFCRWLGLEREAVIGRRFQDLLNLAGKVFLQTHWAPLLQTQGSIAEVKVELIHADGRSVPMMLNAIRREYPSGFLHEVAVFLAEE | not soluble
11 | MSSTIPALPGPEPGPGPGPAGPVSLTERRKAETRMEIARAAARLFVGQGLRATRAEDIARAAGVAPRTFYRYFATKEEAVAPLYALGAERWVRAVREAPAELSPPEALERAVRHTLTPGAGVSAPSWEWARTLIRLAESSPALRKVWAEVCHSTERGLVQALAARMSGGDDNVAVRLAASPRLHFAAAVAGASVRVAAEHWASSSPQGARSPLEQALLNLEVLRGFAWEAGPAEEG | not soluble
12 | MSDKLPYKVADIGLAAWGRKALDIAENEMPGLMRMRERYSASKPLKGARIAGCLHMTVETAVLIETLVTLGAEVQWSSCNIFSTQNHAAAAIAKAGIPVYAWKGETDEEYLWCIEQTLYFKDGPLNMILDDGGDLTNLIHTKYPQLLPGIRGISEETTTGVHNLYKMMANGILKVPAINVNDSVTKSKFDNLYGCRESLIDGIKRATDVMIAGKVAVVAGYGDVGKGCAQALRGFGARVIITEIDPINALQAAMEGYEVTTMDEACQEGNIFVTTTGCIDIILGRHFEQMKDDAIVCNIGHFDVEIDVKWLNENAVEKVNIKPQVDRYRLKNGRRIILLAEGRLVNLGCAMGHPSFVMSNSFTNQVMAQIELWTHPDKYPVGVHFLPKKLDEAVAEAHLGKLNVKLTKLTEKQAQYLGMSCDGPFKPDHYRY | soluble
13 | MGSKGVYQYHWQSHNVKHSGVDDMVLLSKITENSIVENLKKRYMDDYIFTYIGSVLISVNPFKQMPYFGEKEIEMYQGAAQYENPPHIYALADNMYRNMIIDRENQCVIISGESGAGKTVAAKYIMSYISRVSGGGTKVQHVKDIILQSNPLLEAFGNAKTVRNNNSSRFGKYFEIQFSPGGEPDGGKISNFLLEKSRVVMRNPGERSFHIFYQLIEGASAEQKHSLGITSMDYYYYLSLSGSYKVDDIDDRREFQETLHAMNVIGIFAEEQTLVLQIVAGILHLGNISFKEVGNYAAVESEEFLAFPAYLLGINQDRLKEKLTSRQMDSKWGGKSESIHVTLNVEQACYTRDALAKALHARVFDFLVDSINKAMEKDHEEYNIGVLDIYGFEIFQKNGFEQFCINFVNEKLQQIFIELTLKAEQEEYVQEGIRWTPIEYFNNKIVCDLIENKVNPPGIMSILDDVCATMHAVGEGADQTLLQKLQMQIGSHEHFNSWNQGFIIHHYAGKVSYDMDGFCERNRDVLFMDLIELMQSSELPFIKSLFPENLQADKKGRPTTAGSKIKKQANDLVSTLMKCTPHYIRCIKPNETKKPRDWEESRVKHQVEYLGLKENIRVRRAGYAYRRIFQKFLQRYAILTKATWPSWQGEEKQGVLHLLQSVNMDSDQFQLGRSKVFIKAPESLFLLEEMRERKYDGYARVIQKSWRKFVARKKYVQMREEASDLLLNKKERRRNSINRNFIGDYIGMEEHPELQQFVGKREKIDFADTVTKYDRRFKGVKRDLLLTPKCLYLIGREKVKQGPDKGLVKEVLKRKIEIERILSVSLSTMQDDIFILHEQEYDSLLESVFKTEFLSLLAKRYEEKTQKQLPLKFSNTLELKLKKENWGPWSAGGSRQVQFHQGFGDLAVLKPSNKVLQVSIGPGLPKNSRPTRRNTTQNTGYSSGTQNANYPVRAAPPPPGYHQNGVIRNQYVPYPHAPGSQRSNQKSLYTSMARPPLPRQQSTSSDRVSQTPESLDFLKVPDQGAAGVRRQTTSRPPPAGGRPKPQPKPKPQVPQCKALYAYDAQDTDELSFNANDIIDIIKEDPSGWWTGRLRGKQGLFPNNYVTKI | soluble
14 | MVNRFREKLKPDQYLCRIEGTQFVLVSLENDVSNITQIADELRNVVSKPIMIDDNPFPLTLSIGISYDVGKNRDYLLSTAHNAMDYIRKNGGNGWQFFSPAMNEMVKERLVLGAALKEAISNNQLKLVYQPQIFAETGELYGIEALARWHDPQHGHVPPSRFIPLAEEIGEIENIGRWVIAEACRQLAEWRSQNIHIPALSVNLSALHFRSNQLPNQVSDAMQAWGIDGHQLTVEITESMMMEHDTEIFKRIQILRDMGVGLSVDDFGTGFSGLSRLVSLPVTEIKIDKSFVDRCLTEKRILALLEAITSIGQSLNLTVVAEGVETKEQFEMLRKIHCRVIQGYFFSRPLPAEEIPGWMSSVLPLKI | not soluble
15 | MGSDKIHHHHHHMNSPYTRSPRTIKHAFVTGATGLLGNNLVRALLKQGIKVTALVRSMEKARLQFGDLPIQYVKGDILNPEAFRSAFTDCDTLFHTAAFFRDSHKGGKHWQELYDTNVTGTTHLLKAAYEEGIRQMIHTSSIAVLKGERHQLIDETMSRDPSTKLDYYRSKILSENAVSNFLKEYPDLFLCYVLPGSMYGPGDMGPTATGQLILDYMQQKLPGIITKASYSVVDTRDVADIHILALKYGRRNERYLAAGRHMTMESIVKTLEEITGIPAPKRHIPIFLVQALAQWNELYHKITGKPVLVSKEIADITAEEYLRTYFSHKKTEQELGGQFRPFEETLLDTVRWYRNHGYLN | not soluble
16 | TSKQRYSGKVHLCVARYSYNPFDGPNENPEAELPLTAGKYLYVYGDMDEDGFYEGELLDGQRGLVPSNFVDFVQDNESRLAST | soluble
17 | MLTTDSLKRLWIFSFDRTLTAAGACYSKARLHRVTRQFLEELAALPGHRVAVLSSRPLDDLVSRVPIEGIYLGGSCGTEWHIPGGESMTLSGKPKDMLMETRDALLPTLREVADLPGVELEDRRWSAALHTQEANTKARQTLFARLAAVLKGWRVALYRNTTMVEIQFLPEITMAFGAQALCRFLGYRGDVVCAGSDENDATALRWALNQGGTALSLGRDPLVPGARPVVDVRSLARHVRDLAGIDEHHRTRMAGRRLCNAALEHHHHHH | not soluble
18 | MGSDKIHHHHHHMKKISYIFASILLTASLSGCNDFLDVTPSDQYSDASVFTSTEGAQQVLIGAYDWFTNGHYAHYTNQYIFFMPDVMADDAMVNSTGNYNRFVSPYQYSITPSSTYSVDPWIGCYSLIDNCNAILDNLETLPESSERNRIEGESLALRTYAYHYLIRMYAKPVNKYPDNPGVILRLTSSTTDIPRSTVKDCYVQMVNDIEKACTLLTGTSSSSKCYITEQAAHGIAARIYLDLGDYTNGTSHANKALSEITLMSKADYKNKFCENNTETIWYFTCTSTDKQSFLSLPAFWYYCDQDSTYVKDGYSSLGVAKELIDIFDDTDIRKTLFVKIDGKYYKRNGSYVTCKINSRKNDDSDGTKGSGTVAFAEGDYNMMRGSEMYLIIAELAADNNHEDEALAALNKVREARGISAYSGTGDVLKTEIQNERRRELFAEGHRLFDLKRRDLPMDRSNLTLDWSRVGLIPAGSDKLEMPIPQNEIDANGALTIADQNPAYK | not soluble
19 | MHSLFTLNLDLERAGKVICVQSLPFDTARETLLLLSPVGTQCCYMKNAALFLISHFNLIILESDTWLAYANEAGVNPEEGVADFIRQFNAALPEPVRVDALVGYCSSAPLALLAANQGACRTLLLLNGAYFLKDDGVIKSQYERDVERMMQSIPQGNCAQVYEAVSLLHTKSAYTPSDYRYQQVRPLRELSAFRQYLTFLNSLASLESVRIAQTVKTPTLVWCGSQDRYTDTASSRYIAQLLPHSELVEDPDGQHHDFVDGHERLYLTMTHFLTRHKQRAIQ | not soluble
20 | YRRFEKEKLKSQWNNDNPLFKSATTTVMNPKFAES | soluble
21 | MAGLKRRASQVWPEEHGEQEHGLYSLHRMFDIVGTHLTHRDVRVLSFLFVDVIDDHERGLIRNGRDFLLALERQGRCDESNFRQVLQLLRIITRHDLLPYVTLKRRRAVCPDLVDKYLEETSIRYVTPRALSDPEPRPPQPSKTVPPHYPVVCCPTSGPQMCSKRPARGRATLGSQRKRRKSVTPDPKEKQTCDIRLRVRAEYCQHETALQGNVFSNKQDPLERQFERFNQANTILKSRDLGSIICDIKFSELTYLDAFWRDYINGSLLEALKGVFITDSLKQAVGHEAIKLLVNVDEEDYELGRQKLLRNLMLQALPLEHHHHHH | not soluble

— the DeepSol protein solubility set
